According to patent publication US20230374127A1 (LG CHEM, published 2023):

Target: T1, human LILRB1 protein (LILRB1-His, RnD systems Cat. No. 8989-T2) (human, UniProt Q8NHL6 24-458, limits assumed)
T1 construct: Bought protein; also called LILRB1 antigen; the antigen, LILRB1; not shown: His tag
Assay: SPR, Biacore T200; antibody captured by anti-human IgG (Fc), LILRB1-His injected 25-400 nM
Description: The binding affinities of the 19 antibodies, which were selected in Example 3, to the antigen, LILRB1, were measured using Biacore T200 (GE healthcare). An anti-human IgG (Fc) antibody (GE healthcare, Cat. No. BR-1008-39, final concentration of 25 μg/mL) was flowed at the flow rate of 5 μL/min for 360 seconds to be immobilized at 5000-7000 RU on Series S Sensor Chip CM5 (GE healthcare, Cat. No. BR-1005-30) using Amine Coupling Kit (GE healthcare, Cat. No. BR-1000-50).

T1 sequence (Q8NHL6 24-458 limits assumed): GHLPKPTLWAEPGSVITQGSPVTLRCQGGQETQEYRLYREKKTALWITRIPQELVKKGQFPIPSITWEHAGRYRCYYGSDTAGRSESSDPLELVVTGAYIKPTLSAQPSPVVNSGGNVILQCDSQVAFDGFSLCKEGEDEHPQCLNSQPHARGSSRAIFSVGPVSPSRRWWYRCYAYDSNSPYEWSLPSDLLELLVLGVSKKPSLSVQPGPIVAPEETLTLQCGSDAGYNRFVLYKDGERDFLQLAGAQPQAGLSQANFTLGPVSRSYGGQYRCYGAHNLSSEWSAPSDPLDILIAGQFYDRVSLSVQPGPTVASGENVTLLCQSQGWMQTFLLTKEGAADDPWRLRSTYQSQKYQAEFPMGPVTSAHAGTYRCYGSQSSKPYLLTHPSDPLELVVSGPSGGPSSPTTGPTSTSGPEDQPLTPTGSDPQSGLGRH

B1: anti-LILRB1 antibody No. 10 (antibody, human IgG4 S228P, kappa, F234A L235A, V domains shown)
VH: QVQLVQSGAEVKKPGSSVKVSCKASGGTFSSHYMHWVRQAPGQGLEWMGWISPYLGSTNYAQKFQGRVTITADESTSTAYMELSSLRSEDTAVYYCARDETGSTYGAFDYWGQGTLVTVSS
VL: DIQMTQSPSSLSASVGDRVTITCRASQSISNYLNWYQQKPGKAPKLLIYAASNLQSGVPSRFSGSGSGTDFTLTISSLQPEDFATYYCQQSYSFPFTFGQGTKVEIKR
notes: Human IgG4 / kappa, expressed in ExpiCHO-S cells; also called clone 10
With B1 the Kd was 24.1 nM, the koff was 0.000298 s⁻¹ and the kon was 12300 M⁻¹ s⁻¹.
